# Test results taken from US20040138118.
# Columns and labels:
# [1] = tested on: D76A mutant myostatin pro peptide
# [2] = tested on: myostatin pro peptide (wild type)
# Sequence of D76A mutant myostatin pro peptide (chain, as listed by the source D76A): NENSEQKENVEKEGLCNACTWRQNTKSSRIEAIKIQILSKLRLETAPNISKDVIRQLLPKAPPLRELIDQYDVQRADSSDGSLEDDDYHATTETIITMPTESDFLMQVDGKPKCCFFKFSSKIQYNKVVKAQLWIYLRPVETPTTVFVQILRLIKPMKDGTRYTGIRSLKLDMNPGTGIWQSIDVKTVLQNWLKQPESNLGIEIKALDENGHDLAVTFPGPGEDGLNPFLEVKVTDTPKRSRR
substance,measurement,setting,value
mammalian Tolloid (mTLD),"proteolytic cleavage of the mutant pro peptide in the latent complex, western blot (FIGS. 3D and E)",[1],completely resistant to proteolysis by each of the four proteinases
same,"partial proteolytic cleavage of the pro peptide in the latent complex, western blot (FIG. 3E)",[2],mTLD was consistently less active than the other three
same,proteolytic cleavage of free pro peptide,[2],All four of these proteinases also cleaved pro peptide that had been purified away from the C-terminal dimer
same,"proteolytic cleavage, SDS-PAGE and western blot with anti-pro peptide antiserum",[2],A discrete proteolytic cleavage product of the pro peptide was detected in each reaction containing one of the four proteases
